The values below come from patent US20260176336A1 (MESTAG THERAPEUTICS, published 2026).

Assay [1] has as its target T1, human LTBR endogenously expressed on cells (HepG2, A549, A375, HCC1187, RPMI-7951, primary human breast CAFs) (human, UniProt P36941 31-435).
T1 construct: also called lymphotoxin beta receptor; TNFRSF3
Description: flow cytometry, A375 cells.

For assay [2], the target named is T1, human LTBR endogenously expressed on …. Description: cell-based or functional assay.
The target is the same in assay [3]. Kind of assay: cell-based or functional assay. The source holds these as a separate data set.
Assay [4] has the same target. Description: cell-based or functional assay. The source holds these as a separate data set.
Assay [5] concerns the target T2, cyno LTBR His (R&D), recombinant protein (cynomolgus (Macaca fascicularis), UniProt P36941 31-227 (human entry), limits assumed).
T2 construct: bought protein used as analyte on Carterra LSA
Kind of assay: SPR (Carterra LSA) as in Example 2.6, antibody captured, LTBR as analyte. As to the method:
(§1) The binding of anti-LTBR antibodies to human and cynomolgus LTBR was investigated by Surface Plasmon Resonance (SPR) on Carterra LSA. An EC30M chip was used to capture the test antibodies. Activation with EDC and sNHS occurred in MES pH 5.5 to prepare the chip for amine coupling. Goat anti-human IgG Fc antibody was then captured to the chip via incubation for 10 minutes. Excess conjugation sites were quenched with 1M Ethanolamine pH 8. To measure monovalent binding kinetics, antibodies were printed/spotted onto the chip and allowed to bind to the goat antibody, followed by subsequent washing. After the preparation, the printed chip was exposed to repeated rounds of association and dissociation with increasing analyte concentrations. In this work, recombinant proteins (Human LTBR (Acro) or cyno LTBR His (R&D)) were serially diluted across a range starting at 1500 nM with 3-fold dilutions and 10 points. The curves were fitted to global fit in a 1:1 binding model to obtain KD values. The binding affinity to both species is reported.

Assay [6] concerns the target Human LTBR (Acro), recombinant protein (human, UniProt P36941 31-227, limits assumed). The assay is described as above. As to the method:
as §1

Assay [7] concerns the target T3, cyno FAP His (Acro), recombinant protein (cynomolgus (Macaca fascicularis), UniProt Q12884 26-760 (human entry)).
T3 construct: bought protein used as analyte on Carterra LSA
Kind of assay: SPR (Carterra LSA) as in Example 3.6, antibody captured, FAP as analyte; * value outside instrument specifications. As to the method: (§2) Binding of anti-FAP antibodies to human and cynomolgus FAP was investigated by Surface Plasmon Resonance (SPR) on Carterra LSA. An EC30M chip was used to capture the test antibodies. The chip was activated for bioconjugation using EDC and sNHS in MES pH 5.5 to prepare the chip for amine coupling. Goat anti-human IgG Fc antibody was then captured to the chip via incubation for 10 minutes. Excess conjugation sites were quenched with 1M Ethanolamine pH 8. To measure monovalent binding kinetics, antibodies were printed/spotted onto the chip and allowed to bind to the goat antibody, followed by subsequent washing. After the preparation, the printed chip was exposed to repeated rounds of association and dissociation with increasing analyte concentrations. In this work, recombinant proteins (Human FAP (Acro) or cyno FAP His (Acro)) were serially diluted across a range starting at 1500 nM with 3-fold dilutions and 10 points. The curves were fitted to global fit in a 1:1 binding model to obtain KD values. The binding affinity to both human and cynomolgus FAP is reported in.

In assay [8] the target is Human FAP (Acro), recombinant protein (human, UniProt Q12884 26-760). The description is as above. The procedure: as §2
Assay [9] deals with T4, human FAP expressed on cells (transfected HEK293; FAP-CHO-K1 recombinant cell line, BPS cat no. 79947) (human, UniProt Q12884 1-760).
T4 construct: also called HuFAP-HEK293; Hek-FAP
Description: flow cytometry, HEK293-FAP overexpressing cells. For orientation: A flow cytometer gives signals particle by particle.

Assay [10] concerns the target T1, human LTBR endogenously expressed on …. Kind of assay: cell-based or functional assay. This is another data set of the same source.
Assay [11] has the same target. Kind of assay: cell-based or functional assay. The source holds these as a separate data set.
Assay [12] addresses T5, Biotinylated hLTBR-His-Avitag (Acro, cat no LTR-H82E9-25 µg) (human, UniProt P36941 31-227, biotinylated (Avitag)).
T5 construct: bought protein loaded on SA Streptavidin biosensors
Description: BLI (Octet), biotinylated LTBR on SA sensor, antibody as analyte. As to the method: Briefly, Biotinylated hLTBR-His-Avitag (Acro, cat no LTR-H82E9-25 μg) was loaded on SA Streptavidin biosensors (Fortebio) in kinetics buffer (ForteBio) followed by a 2-fold dilution series starting at 50 nM of FAP/LTBR bispecific antibodies. Binding kinetics were studied in a 1× Kinetics buffer where the association was allowed for 100 seconds, followed by dissociation for 300 seconds. Data generated were referenced by subtracting a parallel buffer blank, the baseline was aligned with the y-axis, inter-step correlation by alignment against dissociation was performed, and the data were smoothed by a Savitzky-Golay filter in the data analysis software. The processed data were fitted using a 1:1 Langmuir binding model with R\hat{ }2 as a measurement of fitting accuracy. The KD and R\hat{ }2 values can be found in.
(BLI is a label-free optical method that tracks binding on a fibre tip over time.)

Assay [13] concerns the target cynomologus recombinant LTBR (Octet, Example 4.8) (cynomolgus (Macaca fascicularis), UniProt P36941 31-227 (human entry), limits assumed). Description: BLI (Octet), cyno LTBR immobilised on ARG sensor, antibody at 25 nM. The procedure: A 2-fold series dilution starting at 50 nM of cynomologus recombinant LTBR was immobilised on the surface of ARG biosensors (Fortebio), followed by FAP/LTBR bispecific at 25 nM. Binding kinetics were studied in a 1× Kinetics buffer where the association was allowed for 180 seconds, followed by dissociation for 100 seconds. Sensor tips were regenerated using ethylene glycol. Data generated were referenced by subtracting a parallel buffer blank, the baseline was aligned with the y-axis, inter-step correlation by alignment against dissociation was performed, and the data were smoothed by a Savitzky-Golay filter in the data analysis software. The processed data were fitted using a 1:1 Langmuir binding model with R\hat{ }2 as a measurement of fitting accuracy. The KD values can be found in.

Assay [14] addresses T4, human FAP expressed on cells …. Kind of assay: flow cytometry, FAP-CHO-K1 cells. The procedure: (§3) In short, 1×10⁶ cells were resuspended in the FACS buffer (1% BSA, 0.1% Sodium Azide in PBS), and 50 μl was added to each well (5×10⁴ cells/well) of a 96-U bottom plate. The cells were washed once and resuspended in 50 μl/well of FACS buffer containing a 1:3, 11-point series dilutions of constructs 4.1-4.6 and clones 4.8-4.9 followed by 1 h incubation at 4° C. […] Next, cells were washed and resuspended in FACS buffer and read on Beckman Coulter CytoFLEX. The data were analysed using FloJo V10 and GraphPad Prism v9. Clone 4.7 was tested for binding to A375 (LTBR positive cell line) and the HEK293-FAP overexpressing cell line, as described in examples 2.4 and 3.5. The EC50 values can be found in.

The target in assay [15] is T6, human FAP (Acro, cat no FAP-H82Q6) (human, UniProt Q12884 26-760).
T6 construct: 'FAP is naturally a dimeric antigen'
Kind of assay: BLI (Octet), antibody captured by anti-Fc, FAP as analyte; * value outside instrument specifications; avid binding to dimeric FAP; value flagged as outside instrument specifications. As to the method:
Binding to recombinant FAP proteins was investigated by Bio-Layer Interferometry (BLI) using the Octet instrument. Using standard amine coupling chemistry, an anti-Fc antibody was immobilised on the surface of ARG biosensors (Fortebio). The FAP/LTBR bispecific antibodies were loaded on the previously coated surface with anti-Fc capture antibody, followed by a 2-fold series dilution starting at 50 nM of either cyno FAP (Acro, cat no FAP-C82Q5) or human FAP (Acro, cat no FAP-H82Q6). Binding kinetics were studied in a 1× Kinetics buffer where the association was allowed for 200 seconds, followed by dissociation for 400 seconds. Sensor tips were regenerated using 10 mM Glycine pH 2.0. Data generated were referenced by subtracting a parallel buffer blank, the baseline was aligned with the y-axis, inter-step correlation by alignment against dissociation was performed, and the data were smoothed by a Savitzky-Golay filter in the data analysis software. The processed data were fitted using a 1:1 Langmuir binding model with R\hat{ }2 as a measurement of fitting accuracy. The Results are summarised in. Avidity was observed as FAP is naturally a dimeric antigen, and the limited detection by Octet with these molecules has been reached. Species cross-reactivity has been confirmed for all test samples.

Assay [16] has as its target T1, human LTBR endogenously expressed on …. Kind of assay: flow cytometry, A549 cells. The procedure:
as §3

T1 sequence (P36941 31-435): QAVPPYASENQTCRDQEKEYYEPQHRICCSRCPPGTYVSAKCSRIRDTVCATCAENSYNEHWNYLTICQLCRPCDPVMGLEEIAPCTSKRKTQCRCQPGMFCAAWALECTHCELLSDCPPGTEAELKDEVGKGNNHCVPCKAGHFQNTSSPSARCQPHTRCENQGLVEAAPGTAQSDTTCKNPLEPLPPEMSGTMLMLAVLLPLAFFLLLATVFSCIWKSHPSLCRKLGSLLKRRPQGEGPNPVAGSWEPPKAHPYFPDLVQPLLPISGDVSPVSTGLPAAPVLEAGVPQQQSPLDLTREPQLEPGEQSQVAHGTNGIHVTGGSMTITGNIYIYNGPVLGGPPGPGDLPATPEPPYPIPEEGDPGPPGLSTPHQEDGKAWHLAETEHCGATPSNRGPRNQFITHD
Human LTBR (Acro), recombinant protein, sequence (P36941 31-227 limits assumed): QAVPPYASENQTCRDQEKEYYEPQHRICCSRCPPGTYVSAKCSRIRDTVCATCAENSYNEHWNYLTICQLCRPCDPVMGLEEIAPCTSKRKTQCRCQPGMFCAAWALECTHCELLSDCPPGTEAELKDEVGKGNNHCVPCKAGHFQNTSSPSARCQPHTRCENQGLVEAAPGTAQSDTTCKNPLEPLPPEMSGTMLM
T5 sequence (P36941 31-227 limits assumed): as above
cynomologus recombinant LTBR (Octet, Example 4.8), sequence (P36941 other isoform, or with tags, fused parts or gaps limits assumed): as the sequence (P36941 31-227 limits assumed) above, with A2V, A7G, Q24R, I45S, N163D, K181R, L184S, P186S counted along it
T2 sequence (P36941 other isoform, or with tags, fused parts or gaps limits assumed): as the sequence (P36941 31-227 limits assumed) above, with A2V, A7G, Q24R, I45S, N163D, K181R, L184S, P186S counted along it

B1: Clone 4.7 (bispecific antibody, human IgG1, kappa, L234A L235A)
heavy 1: not shown
heavy 2: QVQLVQSGAEVKKPGASVKVSCKASGYTFTGYYMNWVRQAPGQGLEWMGWINPQSGDVNFAQKFQGRVTMTRDTSISTAYMELSRLRSDDTAVYYCARQFRGYSYGYGMDVWGQGTTVTVSSASTKGPSVFPLAPSSKSTSGGTAALGCLVKDYFPEPVTVSWNSGALTSGVHTFPAVLQSSGLYSLSSVVTVPSSSLGTQTYICNVNHKPSNTKVDKKVEPKSCDKTHTCPPCPAPEAAGGPSVFLFPPKPKDTLMISRTPEVTCVVVDVSHEDPEVKFNWYVDGVEVHNAKTKPREEQYNSTYRVVSVLTVLHQDWLNGKEYKCKVSNKALPAPIEKTISKAKGQPREPQVCTLPPSRDELTKNQVSLSCAVKGFYPSDIAVEWESNGQPENNYKTTPPVLDSDGSFFLVSKLTVDKSRWQQGNVFSCSVMHEALHNHYTQKSLSLSPG
light: not shown
notes: FAP:LTBR 2:1 heterodimer of FAP mAb (clone 3.7) with C terminal fused LTBR scFv (clone 2.3), human IgG1 LALA
The EC50 is the concentration needed to bring the measured effect to its halfway point. Usually Kd stands for the concentration at which binding is half-saturated. For the molecule B1, the EC50 in [1] turned out to be 6 nM; in assay [9], 0.34 nM. In addition, the “HepG2 Reporter assay, HepG2:FAP-CHO-K1 Co-culture EC50” value in assay [2] was 0.023 nM. Further, the “HCC-1187:RPMI7951 (cis-activation) co-culture assay CCL5 read-out EC50” value in assay [3] is 0.01 nM. Further, the “chemokine (CCL5) induction in RPMI-7951 EC50” value in assay [4] came out at 0.0096 nM. Also, the Kd in assay [5] amounted to 0.4 nM; in assay [6] it was 1.8 nM; in [7] it was 0.15 nM; in assay [8] it was 0.16 nM. Also, in [10], the “ICAM1 upregulation in CAFs monoculture assay EC50” value was found to be 0.012 nM. Further, the “CCL19 upregulation, HCC1187:CAF Co-culture EC50” value in assay [11] came to 0.073 nM.

B2: Clone 4.1 (bispecific antibody, human IgG1, kappa, L234A L235A)
heavy 1: not shown
heavy 2: QLQLQESGPGLVKPSETLSLTCTVSGGSISSSTYYWGWIRQPPGKGLEWIGSIFYSGNTYYNPSLKSRVTISVDTSKNHFSLKLSSVTAADTAVYYCAREIIEPRPGYFDYWGQGTLVTVSSASTKGPSVFPLAPSSKSTSGGTAALGCLVKDYFPEPVTVSWNSGALTSGVHTFPAVLQSSGLYSLSSVVTVPSSSLGTQTYICNVNHKPSNTKVDKKVEPKSCDKTHTCPPCPAPEAAGGPSVFLFPPKPKDTLMISRTPEVTCVVVDVSHEDPEVKFNWYVDGVEVHNAKTKPREEQYNSTYRVVSVLTVLHQDWLNGKEYKCKVSNKALPAPIEKTISKAKGQPREPQVCTLPPSRDELTKNQVSLSCAVKGFYPSDIAVEWESNGQPENNYKTTPPVLDSDGSFFLVSKLTVDKSRWQQGNVFSCSVMHEALHNHYTQKSLSLSPG
light: not shown
notes: FAP:LTBR 1:1 heterodimer of LTBR VHH (clone 1.6) paired with FAP Fab (clone 3.5), human IgG1 LALA
Take B2: the Kd came to 4 nM in assay [12], 7.7 nM in assay [13] and 0.182 nM in assay [15]. In addition, in [2], the “HepG2 Reporter assay, HepG2:FAP-CHO-K1 Co-culture EC50” value amounted to 0.07 nM. For the same molecule, the “HCC-1187:RPMI7951 (cis-activation) co-culture assay CCL5 read-out EC50” value in assay [3] was determined as 0.052 nM. In [3], the “HCC-1187:RPMI7951 (trans-activation) co-culture assay, CCL19 Read-out EC50” value came to 0.084 nM. In addition, in assay [4], the “chemokine (CCL5) induction in RPMI-7951 EC50” value was 0.09 nM. Further, the figures for the EC50 in assay [14] and in assay [16] were 0.28 nM and 29 nM, respectively. Besides, in [10], the “ICAM1 upregulation in CAFs monoculture assay EC50” value was determined as 0.026 nM. Also, the “CCL19 upregulation, HCC1187:CAF Co-culture EC50” value in assay [11] worked out at 0.055 nM.
